According to PMC4509788 (Molecular cell, 2010):

B1: NSE1 (purified recombinant) (natural protein, UniProt Q8WV22 1-266, looked up)
chain: MQGSTRRMGVMTDVHRRFLQLLMTHGVLEEWDVKRLQTHCYKVHDRNATVDKLEDFINNINSVLESLYIEIKRGVTEDDGRPIYALVNLATTSISKMATDFAENELDLFRKALELIIDSETGFASSTNILNLVDQLKGKKMRKKEAEQVLQKFVQNKWLIEKEGEFTLHGRAILEMEQYIRETYPDAVKICNICHSLLIQGQSCETCGIRMHLPCVAKYFQSNAEPRCPHCNDYWPHEIPKVFDPEKERESGVLKSNKKSLRSRQH
B2: NSE1 (full length, coexpressed with MAGE-G1) (natural protein, UniProt Q8WV22 1-266, looked up)
chain: B1 chain

Key:
GST-MAGE-G1 = molecular target: T1, GST-MAGE-G1 (human, UniProt Q96MG7 1-304); experiment: pull-down
T1 sequence (looked up): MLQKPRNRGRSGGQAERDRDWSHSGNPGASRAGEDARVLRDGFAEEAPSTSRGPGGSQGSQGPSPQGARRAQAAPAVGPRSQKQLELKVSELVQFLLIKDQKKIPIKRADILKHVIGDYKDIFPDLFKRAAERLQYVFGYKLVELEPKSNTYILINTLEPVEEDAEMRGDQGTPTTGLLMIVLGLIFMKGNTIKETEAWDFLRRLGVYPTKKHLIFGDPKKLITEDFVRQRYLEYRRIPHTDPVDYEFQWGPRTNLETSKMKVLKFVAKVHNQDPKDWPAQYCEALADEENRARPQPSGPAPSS

[1] = molecular target: T2, MAGE-G1 (full length, coexpressed with NSE1) (human, UniProt Q96MG7 1-304); experiment: co-purification after coexpression in bacteria
T2 sequence (looked up): T1 sequence (looked up)

Binder | binding result (GST-MAGE-G1) | binding result [1]
B1 | binds | 
B2 |  | binds
